Laboratory results published in the RNAGym collection of RNA variant scans (doi:10.1073/pnas.2313332121).
Fewer inactive variants are shown than the library holds.

B1: TPR 5TU (parent)
chain: GGAUCUUCUCGAUCUAACAAAAAAGACAAAUCUGCCACAAAGCUUGAGAGCAUCUUCGGAUGCAGAGGCGGCAGCCUUCGGUGGCGCGAUAGCGCCAACGUUCUCAACUAUGACACGCAAAACGCGUGCUCCGUUGAAUGGAGUUUAUCAUG

Variants of: B1
Assay: polymerase ribozyme fitness, log enrichment relative to wild type (log ratio); higher = more active; in vitro selection for triplet polymerase activity
Method in brief: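 A single round of triplicate in vitro selection, including frozen incubation at −7 °C, was applied to PCR-built, transcribed mutant libraries of each subunit of a heterodimeric triplet polymerase ribozyme. Illumina sequencing of input and output libraries retained genotypes with ≥10 input reads and ≥1 read per output. Fitness is the base-2 logarithm of genotype enrichment divided by wild-type enrichment, from inverse-variance-weighted replicate averages.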

Row | Variant | polymerase ribozyme fitness (log ratio)
1 | A20G G81C C93U C103A G152A | -3.74
2 | A73G G84A | -0.268
3 | A49C C87A C95A C123A | ≤ -4.2
4 | G62A G92A | -3.43
5 | C57U A142U | 0.471
6 | G48C A49C | -3.92
7 | A12G A23G U31A C35U U56A | -3.98
8 | U6A A23C C76G G94A G141C G152U | ≤ -4.2
9 | A23U C51U C76A C96G C103G A115G | ≤ -4.2
10 | C54U U56A C93U C131G G133A U146A G152U | -4
11 | U15A G25U A60G G74A C75A A142U | ≤ -4.2
12 | C38U C63A C103A | -1.77
13 | C76U G94U A115C C125U A147U | ≤ -4.2
14 | C85U G126U | -1.6
15 | A26U U44A C93A A142C | ≤ -4.2
16 | U77A A91G G94A | ≤ -4.2
17 | A29U G92C C95U A106C C114U G128U A138G | ≤ -4.2
18 | A26C U61A | -3.34
19 | C27U A37C U56G | -2.92
20 | A16C G86C | -3.43
21 | U44A C95A | -4.11
22 | A29U G50U U55A G86C G141C | ≤ -4.2
23 | U33C G141A | -2.97
24 | A21G C54U C96G C129A | -3.17

Row | Variant | polymerase ribozyme fitness (log ratio)
25 | C85U G141A | -0.0572
26 | C75G C87G C93U C103G | ≤ -4.2
27 | A29G C95A A119C G141C | ≤ -4.2
28 | C96G C103A | -2.09
29 | A37U A49C A73U C75G A106C | ≤ -4.2
30 | G59C U90C C108G A119U A150U | ≤ -4.2
31 | C5U U6A C57U G67C G71A U82G C87G U104A U139G A142G | ≤ -4.2
32 | C36A | -2.97
33 | C27G A28U U55G U61A C76A C96U C116G G133C | ≤ -4.2
34 | A21U A39G A52C G58A G80A G83U C85A C93A | ≤ -4.2
35 | A20C G50U C95U A106U A137C | ≤ -4.2
36 | A40G G67A G94A G100A A107U | ≤ -4.2
37 | A52C G88A A113U A121C | ≤ -4.2
38 | G42A G80C G86C | ≤ -4.2
39 | G48A A113C U134C A137C G140A U148G | ≤ -4.2
40 | A30C | -3.12
41 | G50A C93A | -3.33
42 | G42C U127G A150G | ≤ -4.2
43 | A89C G92U C96A A106G A107U U139A | ≤ -4.2
44 | G11C C93A C125U | ≤ -4.2
45 | C79U G100A A115C | -1.13
46 | G58U G84U A113G U139G | -2.95
47 | A16U C32A C35G C96A G124C U144C | ≤ -4.2
48 | A115U G141U | -1.29

Row | Variant | polymerase ribozyme fitness (log ratio)
49 | A12G A52C U55A C118G A120U | -1.84
50 | U13C A16G A19C U56A G136U U145G | -3.34
51 | U134G U148A | -3.87
52 | C96G U148C | -1.42
53 | C51A G58C U111A | ≤ -4.2
54 | U6G A73G C87U G136U | -2.92
55 | C43U G80U C93G C99G | ≤ -4.2
56 | U78G G126U | ≤ -4.2
57 | U33C A91U | -3.67
58 | C32A A37C C54G G83A C118A G136U A138C G141C U145G | ≤ -4.2
59 | U6A C57U A60U C99U U111G G126U C129G | ≤ -4.2
60 | A12G C38U G86A C87U A121C G136A | ≤ -4.2
61 | A40U C54G C118A | -1.63
62 | C10G A20U A28U C35U C51G A64C G84U C123U | ≤ -4.2
63 | U15C G42U G50U C93G C132A G140A U148C A150U | ≤ -4.2
64 | C85G A98U C129A U134C | -4.18
65 | A29G A49G C51U G70A A107U | ≤ -4.2
66 | U6A G25C G141A U146A | -2.69
67 | U4G G48A U77G G83C U135A | ≤ -4.2
68 | U77A C96G G141U | ≤ -4.2
69 | A17U A30C C35A U55G U109A | -4.11
70 | G92U A122U G141C | -0.707
71 | A21G C36U A52C A107U U127C | ≤ -4.2
72 | A3G A17U G34A C118G U146A C149A | ≤ -4.2

Row | Variant | polymerase ribozyme fitness (log ratio)
73 | U7A C96U | -2.73
74 | A52C U56A C75U A89U U90G C95G C123G C125A | ≤ -4.2
75 | A21U A28C G34U A39G | ≤ -4.2
76 | C36U G50C U53A G59C U78A | ≤ -4.2
77 | C36A U55A | -3.27
78 | G81C A89C A98U A107U U144C | ≤ -4.2
79 | A3G U13G A23C C43A C87U | ≤ -4.2
80 | A19G C75U C93A | -3.68
81 | A20G U78G C93U A110U U135G A137G | ≤ -4.2
82 | U7A A16U G58C G71C C93U A115C U134C | ≤ -4.2
83 | C85A U130G | -3.53
84 | A22U C43A G86A U90A | ≤ -4.2
85 | G84A G112C | -2.71
86 | U7G A52U G140C | ≤ -4.2
87 | C51U A60G C79G C85G C129A | ≤ -4.2
88 | A3U A41C C95U C99G C118A G136A U144G | -3.81
89 | U56A C114G | -3.1
90 | C57U U146G | -0.656
91 | A41C U53C A122C C123A G141U U144G | -3.18
92 | C36A A60G G143A | ≤ -4.2
93 | A19C U33A U55A U77G C123G | ≤ -4.2
94 | U7G A39U C69U C95U C129G | ≤ -4.2
95 | U4G C54G C96G A137G | -4.19
96 | U6C C76G G124U G128U | ≤ -4.2

Row | Variant | polymerase ribozyme fitness (log ratio)
97 | U13C G88U | -3.96
98 | C54U U56A C93U G133U | -4.06
99 | A40G G48A C125A | ≤ -4.2
100 | A12C A21G A122G G140U | -4.13
101 | C36A A89U C116A A120U | -4.18
102 | C5G U6C C57A C85U | -1.26
103 | C10A A20U A21C A49C C51U C79U A110G | ≤ -4.2
104 | U9C G88C A137C | ≤ -4.2
105 | A3U A47C | -0.9
106 | C35A A47C | -3.11
107 | U4A C93U | -1.34
108 | C10U A37U C57G G58U C87G G140U U145A | ≤ -4.2
109 | U9C A97G | -2.82
110 | C57A C96U U146G | -0.855
111 | A73G C85U | -0.115
112 | C36A G48A G50A C69G G71A | ≤ -4.2
113 | A22C A89G C95A C103A G124U | -4
114 | A30U G68C G81C G94A A98C U104C | ≤ -4.2
115 | A20G G83U | -0.993
116 | U6A A142C | -0.741
117 | C5G A24C A28C U55G G58A C63U C105G A137G U151G | ≤ -4.2
118 | A30U G86A C96U A107U A142U C149G | ≤ -4.2
119 | C43U A49G G84C G140U U146G | ≤ -4.2
120 | C35U C87U | -0.746

Row | Variant | polymerase ribozyme fitness (log ratio)
121 | G25U C51U A73U C76U G83U C95U C96U G100U C118G A122G | ≤ -4.2
122 | A21U C38G G84A G136C | -3.78
123 | C54U C103U C123A U148G | ≤ -4.2
124 | U6C C10A C14G A49C C57U A91C C114U | ≤ -4.2
125 | U44A G70C G117A G136U | ≤ -4.2
126 | A21G A22G A47C C51A G74C C75U U102G C132G G143C | ≤ -4.2
127 | A47U U82G G84A A97G U102G G136C | ≤ -4.2
128 | C85U C118G | -0.62
129 | G34A G71A G88C A91C | ≤ -4.2
130 | A21U G50A C63U C75U A97U | -1.25
131 | C125U U145A | -1.23
132 | G25U A26G C32G C85G A106G C129U G140C G143A | ≤ -4.2
133 | U9C A26U C54U G92A | ≤ -4.2
134 | G83C A89C G126A | -0.834
135 | A28C G50A A97U G124A A138C | ≤ -4.2
136 | A16C A22C U82G C85U A98C G136U | ≤ -4.2
137 | C18G A21G A23C A40U G70A C79G C87G G117C | ≤ -4.2
138 | U55A C57A G59C G80U A91U | ≤ -4.2
139 | U77G C87U G88A G140C A142G | ≤ -4.2
140 | A20G A41C C54G G83U C87G A98C C116G C132U | ≤ -4.2
141 | G50A G88A | ≤ -4.2
142 | C85G C99U G140U | ≤ -4.2
143 | A17C C116G A138G U144A | ≤ -4.2
144 | A24C C43A U45A | ≤ -4.2

Row | Variant | polymerase ribozyme fitness (log ratio)
145 | G50A A73U C93G G100U A107G U109C A142C A150U | ≤ -4.2
146 | C5U G62A U90G A138G A142U | ≤ -4.2
147 | U6C G48C G59U U145C | -0.905
148 | C76A A97U | -1.06
149 | C10U A17C | -2.07
150 | U127G G143A A147G | ≤ -4.2
151 | C35A C57A G83U G94C | ≤ -4.2
152 | A47U U61A C118U | -2.01
153 | A37U C95U A122G | -1.77
154 | U6C G74U U102A C123A | ≤ -4.2
155 | C8A C36A G68C C96U C99A G128C | ≤ -4.2
156 | A47G G65C A106G A120G | -4.14
157 | U31C A89C C93U U135A | -2.87
158 | G50A G94A C116G | -1.53
159 | G50C C93G C99G G126U | ≤ -4.2
160 | C51A U55A C95A A110U G128C | ≤ -4.2
161 | C93A C99A | ≤ -4.2
162 | G59U C76G A110U G124C A137G | ≤ -4.2
163 | C38U C85U C131G | -3.56
164 | C35A U55A | -2.64
165 | C14A G50A C87A A106U C108G A150C | ≤ -4.2
166 | C57U A121U C129U | -0.101
167 | C35G C57U | ≤ -4.2
